Data on eight molecules can be found in paper PMC11929097, “Stabilized designs of the malaria adhesin protein PvRBP2b for use as a potential diagnostic for Plasmodium vivax [image fx2.gif]” (The Journal of Biological Chemistry, 2025).

Test in all cases: BLI; Octet RED96; human mAb loaded on anti-human IgG Fc capture sensor tips; parental PvRBP2b169-470 or design in solution, 2-fold series 0.63 to 10 nM; 25 °C; PBS, 0.1% bovine serum albumin, 0.05% Tween-20; global fit 1:1 model; two independent experiments
What all share (conditions): both partners purified
For orientation: Biolayer interferometry detects binding as a change in optical thickness at a sensor tip.

For experiment [1], the target named is T1, WHT2483 (PROSS-MPNN stabilized design of PvRBP2b_(169-470)) (Plasmodium vivax strain Salvador I …, Gln378Leu | Arg418Glu).
T1 construct: PvRBP2b, P. vivax strain Salvador I, PVX_094255, residues 169-470 with 19 designed stabilising mutations; 19 mutations relative to the parental protein; crystal structure PDB 9DZC solved here
T1 chain: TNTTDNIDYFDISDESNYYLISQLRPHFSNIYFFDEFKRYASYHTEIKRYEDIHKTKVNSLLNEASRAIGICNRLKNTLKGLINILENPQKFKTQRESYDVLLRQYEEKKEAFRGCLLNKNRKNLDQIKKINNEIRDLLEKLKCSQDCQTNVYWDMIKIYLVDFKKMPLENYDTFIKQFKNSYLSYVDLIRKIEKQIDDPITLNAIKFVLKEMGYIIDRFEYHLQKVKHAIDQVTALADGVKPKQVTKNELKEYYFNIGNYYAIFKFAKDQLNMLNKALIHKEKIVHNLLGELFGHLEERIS

Experiment [2] has as its target T2, WHT2484 (PROSS-MPNN stabilized design of PvRBP2b_(169-470)) (Plasmodium vivax strain Salvador I …, Lys248Leu | Met324Phe | Gln378Leu | Arg418Glu).
T2 construct: PvRBP2b, P. vivax strain Salvador I, PVX_094255, residues 169-470 with 26 designed stabilising mutations; 26 mutations relative to the parental protein; crystal structure PDB 9DZD solved here
T2 chain: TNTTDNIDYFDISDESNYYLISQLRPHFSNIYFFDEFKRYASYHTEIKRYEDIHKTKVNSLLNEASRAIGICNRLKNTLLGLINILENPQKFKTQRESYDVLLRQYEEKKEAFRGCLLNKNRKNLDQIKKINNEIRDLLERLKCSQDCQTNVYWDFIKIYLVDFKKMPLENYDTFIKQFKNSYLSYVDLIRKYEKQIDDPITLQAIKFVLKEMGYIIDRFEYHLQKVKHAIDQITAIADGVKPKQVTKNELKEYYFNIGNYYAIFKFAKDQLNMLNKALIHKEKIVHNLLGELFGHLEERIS

The target of experiment [3] is T3, parental PvRBP2b_(169-470) (Plasmodium vivax reticulocyte-binding protein 2b, N-terminal domain) (Plasmodium vivax strain Salvador I, UniProt A5K736).
T3 construct: TEV cleavage site between the His tag and the protein; pPROEX HTb vector; also called parental construct; parental protein

Where “and” joins values, the source holds several entries; their conditions need not be identical. Equal values may be shown once. Bounds are passed on as bounds.

B1: human mAb 258259 (antibody, V domains shown)
VH: EVQLLESGGGLVRPGGSQRLSCAASGFTFTPYAMTWVRQAPGKGLEWLSTISGSGGSTYYADSVKGRFTISRDNSKNMLYLQMNSLTAEDTALYYCTKDKDEYTFGHNAFDVWGQGTMVTVSS
VL: SYELTQAPSVSVAPGQTARITCGGDNIGRKTVNWYQQKPGQAPVLVIYYDNDRPSGIPERFSGSNSGNMATLSISRVEVGDEADYYCQVWDSNNDHPVFGGGTKLTVV
notes: naturally acquired human mAb, recombinant IgG captured by its Fc; source: Expi293 HEK cells, transfected, purified (protein A, SEC)
One may read the Kd as the free concentration of one partner at which half of the binding sites on the other are occupied at equilibrium, for simple one-to-one binding. What is called koff is a measure of how fast the partners let go of each other. By kon is commonly meant the second-order rate constant of association. With B1, the Kd in experiment [1] is 0.085 nM and 0.059 nM; in experiment [2], 0.069 nM and 0.081 nM; in experiment [3], < 0.001 nM. Also, the koff in experiment [1] was 6.59e-05 s⁻¹ and 5.6e-05 s⁻¹; in experiment [2], 5.39e-05 s⁻¹ and 7.69e-05 s⁻¹; in experiment [3], < 1e-07 s⁻¹. The on-rate constant (kon) is 778000 M⁻¹ s⁻¹ and 949000 M⁻¹ s⁻¹ in experiment [1]; 778000 M⁻¹ s⁻¹ and 953000 M⁻¹ s⁻¹ in experiment [2]; 1.33e+06 M⁻¹ s⁻¹ and 976000 M⁻¹ s⁻¹ in experiment [3].

B2: human mAb 273264 (antibody, V domains shown)
VH: EVQLLESGGGLVRPGGSQRLSCAASGFTFTPYAMTWVRQAPGKGLEWLSTISGSGGSTSYADSVKGRFTISRDNSKNILYLQMDSLRAEDTALYYCTKDKDEYTFGHNAFDVWGRGTMVTVSS
VL: SYELTQAPSVSVAPGQTARITCGGDNIGRTSVHWYQQKPGQAPVLVIFYDNDRPSGIPERFSGSNSGNMATLSISRVEVGDEADYYCQVWDSNNDHPVFGGGTKLTVV
notes: as for B1
In the case of B2, in experiment [1], the Kd is 0.089 nM and 0.154 nM; the koff was 6.92e-05 s⁻¹ and 0.000165 s⁻¹; the kon is 778000 M⁻¹ s⁻¹ and 1.07e+06 M⁻¹ s⁻¹. Also, in experiment [2], the Kd is 0.139 nM and 0.101 nM; the koff is 0.000124 s⁻¹ and 0.000106 s⁻¹; the kon is 893000 M⁻¹ s⁻¹ and 1.05e+06 M⁻¹ s⁻¹. In addition, in experiment [3], the Kd was < 0.001 nM; the koff is < 1e-07 s⁻¹; the kon was 1.18e+06 M⁻¹ s⁻¹ and 1e+06 M⁻¹ s⁻¹.

B3: human mAb 253245 (antibody, V domains shown)
VH: EVQLVQSGAEVKKPGSSMKVSCKASGGTFNRYVFSWVRQAPGQGLEWMGGILPILETTYYAKNFKGRVTITADESTSTVYMELSSLTSEDTAVYFCARDEHDYVWGSYRPSLTGPWGQGTLVTVSS
VL: QSALTQPPSTSGSPGQSVTISCTGTGIDVGGFSYVSWFQYHPGKAPKLIIFEVTKRPSGVPDRFSGSKSGNTASLTISGLQADDEAEYYCSSYAVNNNFVFGTGTKVTVL
notes: as for B1
For B3, the kon was 1.04e+06 M⁻¹ s⁻¹ and 1.26e+06 M⁻¹ s⁻¹ in experiment [1]; 1.06e+06 M⁻¹ s⁻¹ and 1.12e+06 M⁻¹ s⁻¹ in experiment [2]; 1.58e+06 M⁻¹ s⁻¹ and 1.18e+06 M⁻¹ s⁻¹ in experiment [3]. In addition, the Kd in experiment [3] is < 0.001 nM. In experiment [3], the koff is < 1e-07 s⁻¹.

B4: human mAb 251249 (antibody, V domains shown)
VH: EVQLVESGGGLVKPGGSLRLSCEASGFLFSSYSMNWVRQAPGKGLEWVSSITGYSSEVFYTDSVKGRFTVSRDNSKNSLYLQMDSLRAEDTAVYYCARALTIFGVVITDYWFFDLWGRGTLVTVSS
VL: EIVLTQSPATLSLSPGDRATLSCRASQSVTTFLAWYQQKPGQAPRLLIYDVSNRATGIPARFSGSGSGTDFTLTISSLEPEDFAVYYCQQRSNWGLTFGGGTKVEIK
notes: as for B1
For the molecule B4, the kon is 978000 M⁻¹ s⁻¹ and 1.37e+06 M⁻¹ s⁻¹ in experiment [1]; 956000 M⁻¹ s⁻¹ and 1.26e+06 M⁻¹ s⁻¹ in experiment [2]; 1.63e+06 M⁻¹ s⁻¹ and 1.25e+06 M⁻¹ s⁻¹ in experiment [3]. Besides, the Kd in experiment [2] is 0.11 nM and 0.314 nM; in experiment [3], < 0.001 nM. Besides, the koff in experiment [3] was < 1e-07 s⁻¹.

B5: human mAb 237235 (antibody, V domains shown)
VH: QVQLVESGGGVVQPGRSLRLSCAASGFMFNSYGMHWVRQAPGKGLEWMAFISYDGSDDYYGDSVKGRITISRDNSKNTLFLHINSLRTEDTAVYYCAKESNYGENAFDVWGHGTMVTVSS
VL: QSALTQPRSVSGSPGQSVTISCTGTSNDVGFYNFVSWYQHHPGKAPKLMIYDVTERPSGVPDRFSGSKSGNTASLTISGLQAEDEAEYYCCSYAGTYTFVFGHGTKVTVL
notes: as for B1
In the case of B5, in experiment [1], the Kd was ≤ 0.01 nM. Also, in experiment [2], the kon is 658000 M⁻¹ s⁻¹ and 745000 M⁻¹ s⁻¹. Also, in experiment [3], the Kd is < 0.001 nM; the koff was < 1e-07 s⁻¹; the kon was 1.78e+06 M⁻¹ s⁻¹ and 1.31e+06 M⁻¹ s⁻¹.

B6: human mAb 243244 (antibody, V domains shown)
VH: QVQLVESGGGVVQSGKSLRVSCAASGFTFSSYGMHWVRQAPGKGLEWVAFISYDGDNKYSADSVKGRLTISRDNSKNTLYLQMNSLRPEDTAVYYCAKESNYGENAFDIWGQGTMVTVSS
VL: QSALTQPRSVSGSPGQSVTISCTGTSSDVGFYNFVSWYQHHPGKAPKLIIYDVSERPSGVPDRFSGSKSGNTASLSISGLQPEDEADYYCCSYAGTYTFVFGSGTKVTVL
notes: as for B1
Regarding B6, the Kd in experiment [1] is 0.053 nM and 0.018 nM; in experiment [3], < 0.001 nM. The kon is 1.02e+06 M⁻¹ s⁻¹ and 1.24e+06 M⁻¹ s⁻¹ in experiment [1]; 705000 M⁻¹ s⁻¹ and 780000 M⁻¹ s⁻¹ in experiment [2]; 1.75e+06 M⁻¹ s⁻¹ and 1.32e+06 M⁻¹ s⁻¹ in experiment [3]. Also, the koff in experiment [3] was < 1e-07 s⁻¹.

B7: human mAb 241242 (antibody, V domains shown)
VH: EVQLLESGGGLVQPGGSLRLSCAVSGFTFRNYALSWVRQAPGKGLDWVSTISASGGATYYADSVKGHFTISRDNSKNILYLDMKSLRAEDTAIYYCARDGGSYTPYFFLDSWGQGALVTVSS
VL: SYELTQPASVSVAPGQTAQITCGGNSIGRKSIHWYQHKPGQAPVLVISYDSDRPSGIPERFSGSNSGNTATLTISKVEAGDEADFYCQVRDSDNDHVVFGGGTKLTVL
notes: as for B1
As to B7, the kon in experiment [2] is 956000 M⁻¹ s⁻¹ and 1.18e+06 M⁻¹ s⁻¹. Moreover, in experiment [3], the Kd is < 0.001 nM; the koff is < 1e-07 s⁻¹; the kon was 1.24e+06 M⁻¹ s⁻¹ and 1.52e+06 M⁻¹ s⁻¹.

B8: human mAb 283284 (antibody, V domains shown)
VH: QVQLQQWGAGLLKPSETLALTCTVYGGSSSGYYWNWIRQSPGKGLEWIGEISDSGSTIYNPSLESRVTMSVDTSKNQFSLKLTSVTAADTAVYYCAKAILTRYNWLDPWSQGTLVTVSS
VL: DIVMTQSPSSLSASVGDRISISCRASQGVNSALAWYQQKPGKAPKLLIYDASTLESGVPSRFSGSGSGTDFALTINSLQPEDFATYYCQQFNSYPLTFGGGTKVEIK
notes: as for B1
For the molecule B8, the kon in experiment [1] was 838000 M⁻¹ s⁻¹ and 910000 M⁻¹ s⁻¹. In experiment [2], the Kd was 0.112 nM and 0.074 nM; the koff was 0.000113 s⁻¹ and 6.89e-05 s⁻¹; the kon is 1.01e+06 M⁻¹ s⁻¹ and 936000 M⁻¹ s⁻¹. For the same molecule, in experiment [3], the Kd was < 0.001 nM; the koff is < 1e-07 s⁻¹; the kon was 1.48e+06 M⁻¹ s⁻¹ and 994000 M⁻¹ s⁻¹.
